The source of these data is patent publication US6685932 (EUROPAISCHES LABORATORIUM MOLEKULARBIOLOGIE, dated 2004).

For assay [1], the target named is T1, extracellular domain of the IL-4Rα (IL-4 binding protein) (UniProt P24394 26-232, limits assumed, biotinylated at Cys-206).
T1 construct: extracellular domain; Immobilised on the streptavidin-coated matrix of the biosensor through biotin at Cys-206; also called IL4BP; IL-4 specific receptor
T1 sequence (looked up): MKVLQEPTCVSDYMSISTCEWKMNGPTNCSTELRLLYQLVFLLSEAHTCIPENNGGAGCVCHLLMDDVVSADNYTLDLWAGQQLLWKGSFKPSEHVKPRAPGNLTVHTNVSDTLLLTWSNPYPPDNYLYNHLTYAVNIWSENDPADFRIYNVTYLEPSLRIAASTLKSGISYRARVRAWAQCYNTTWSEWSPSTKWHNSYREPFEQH
As to the kind of experiment: biosensor (BIA2000), IL4BP immobilised on a streptavidin matrix, room temperature.

The target in assay [2] is T1, extracellular domain of the IL-4Rα …. Put plainly: biosensor (BIA2000), IL4BP biotinylated at Cys-206 on a streptavidin matrix, 25 C.
Assay [3] has the same target. The description is as above. This is another data set of the same source.

Where two headings read alike, the source gives them in different places.

B1: Model 1 (peptide)
peptide: Ac-RMKQLEDKVEELLSKNYRLENRVARLEKLVG-NH2
modifications: also: designed to form non-covalent parallel coiled-coil dimer
notes: Synthetic peptide derived from the GCN4 leucine zipper, designed to form a non-covalent parallel coiled-coil dimer
Consider B1, for which the binding result in assay [1] is given as “no binding”.

B2: Model 2 (peptide)
peptide: Ac-RMKQLEDKVERLLSRNYRLENEVARLKKLVG-NH2
modifications: not fully specified
notes: as for B1
In general, Kd refers to the constant that tells how readily two partners part at equilibrium. In the case of B2, the Kd in assay [2] and in assay [3] was 4.08 mM each time.
